# Laboratory results reported in PMC8229911.
# Target: Lrp transcriptional regulator from Haloferax mediterranei (HFX_RS01210) (Haloferax mediterranei)
# Assay: SEC; Superose6 Increase 10/300 GL, 50 mM Tris-HCl pH 8.0, 150 mM NaCl; molecular mass estimated against standard proteins of 6.5 to 660 kDa in the same buffer
substance,measurement,value
Lrp transcriptional regulator from Haloferax mediterranei (HFX_RS01210) (natural protein),stoichiometry N,4
